For assay [1], the target named is CFP:MtRH10 (Medicago truncatula). The experiment in a line: FRET or BRET. In general terms: Bioluminescence resonance energy transfer reports proximity on the nanometre scale.
Assay [2] deals with RPL7:CFP (Medicago truncatula). The experiment in a line: FRET or BRET.

AeSSP1256:YFP (natural protein): the mean CFP lifetime of the donor with the acceptor (2.86 ns +/- 0.02 without) in assay [1] was determined as 2.53 ns. This substance also showed a mean CFP lifetime of the donor with the acceptor (2.83 ns +/- 0.03 without) in assay [2] of 2.46 ns.
